The values below come from patent US20040115622A1.

The target of experiment [1] is HLA-DR molecule encoded by the allele DRB1*0701 (human). Put plainly: competition ELISA vs biotinylated YKL.
For experiment [2], the target named is HLA-DR molecule encoded by the allele DRB4*0101 (human). The experiment is described as follows: competition ELISA vs biotinylated E2/E168. (In general: In an ELISA, binding on a coated surface is turned into a signal by an enzyme label.)
The target of experiment [3] is HLA-DR molecule encoded by the allele DRB1*1501 (human). The experiment is described as follows: competition ELISA vs biotinylated A3 152-166.
Experiment [4] concerns the target HLA-DR molecule encoded by the allele DRB1*0101 (human). Put plainly: competition ELISA vs biotinylated HA 306-318.
Experiment [5] deals with HLA-DR molecule encoded by the allele DRB1*0401 (human). The experiment is described as follows: competition ELISA vs biotinylated HA 306-318.
Experiment [6] has as its target HLA-DR molecule encoded by the allele DRB5*0101 (human). Put plainly: competition ELISA vs biotinylated HA 306-318.

For orientation: IC50 means the concentration that inhibits the measured activity by half. Lower therefore signals higher potency. On to “Nef4 peptide (positions 66-94 of the HIV-1 Nef protein, Bru strain) (from UniProt P03406 66-94) (peptide; other documents disagree on this pair)”, for which the IC50 stood at 5 µM in experiment [1]; 0.225 µM in experiment [2]; 0.75 µM in experiment [3]; 0.055 µM in experiment [4]; 0.045 µM in experiment [5]; 0.012 µM in experiment [6].

The substance “Nef4.1 peptide (positions 66-80 of the HIV-1 Nef protein, Bru strain) (from UniProt P03406 66-80) (peptide; other documents disagree on this pair)” returned an IC50 in experiment [4] of 1.5 µM.

As for “Nef4.2 peptide (positions 68-82 of the HIV-1 Nef protein, Bru strain) (from UniProt P03406 68-82) (peptide; other documents disagree on this pair)”, the IC50 in experiment [3] stood at 7 µM; in experiment [4], 0.25 µM.

For the substance “Nef4.3 peptide (positions 72-86 of the HIV-1 Nef protein, Bru strain) (from UniProt P03406 72-86) (peptide; other documents disagree on this pair)”, the IC50 stood at 2.43 µM in experiment [2]; 1.93 µM in experiment [3]; 2 µM in experiment [4]; 2 µM in experiment [5]; 1.5 µM in experiment [6].

With “Nef4.4 peptide (positions 74-88 of the HIV-1 Nef protein, Bru strain) (from UniProt P03406 74-88) (peptide; other documents disagree on this pair)”, the IC50 stood at 0.55 µM in experiment [2]; 0.667 µM in experiment [3]; 0.35 µM in experiment [4]; 0.225 µM in experiment [5]; 0.7 µM in experiment [6].

For the substance “Nef4.5 peptide (positions 77-91 of the HIV-1 Nef protein, Bru strain) (from UniProt P03406 77-91) (peptide; other documents disagree on this pair)”, the IC50 in experiment [3] came to 1.33 µM; in experiment [4], 0.012 µM; in experiment [5] it was 0.06 µM; in experiment [6] it was 0.028 µM.

Regarding “Nef4.6 peptide (positions 79-93 of the HIV-1 Nef protein, Bru strain) (from UniProt P03406 79-93) (peptide; other documents disagree on this pair)”, the IC50 in experiment [4] worked out at 0.055 µM; in experiment [5], 0.15 µM; in experiment [6] it was 0.045 µM.
